Experimental data from paper PMC9186069.

What was measured:
[1] = target: MBP-FbpA-N (Borrelia miyamotoi strain FR64b); assay: SPR; MBP-Fbp-N fusion proteins immobilised by amine coupling on CMD200 chips; human plasma fibronectin injected, twofold dilution series up to 500 nM, multi-cycle; Biacore T200, 25°C, 30 μL/min, HBS-T; steady-state affinity fits
[2] = target: serum C1r (human (endogenous in normal human serum))
[3] = target: FbpA-C (Borrelia miyamotoi strain FR64b) (UniProt W5SFZ1); assay: SPR; FbpA-C, FbpB-C or FbpA DA-C immobilised by amine coupling; C1r-CCP2-SP injected, twofold dilution series 0-100 nM, multi-cycle; Biacore T200, 25°C, 30 μL/min; kinetic fits

Substance: human fibronectin (from UniProt P02751) (natural protein)
- Kd [1]: 0.17 µM

Substance: FbpA-C (from UniProt W5SFZ1 222-371) (domain or fragment)
- IC50 of inhibition of classical pathway complement activation (ELISA-based assay, C4b deposition, normal human serum) [2]: 0.023 µM
- IC50 of inhibition of classical pathway hemolysis (pre-sensitized sheep erythrocytes, 2% normal human serum) [2]: 0.22 µM

Substance: C1r-CCP2-SP (domain or fragment)
- Kd [3]: 0.0009 µM
- koff [3]: 0.00031 s⁻¹
- kon [3]: 330000 M⁻¹ s⁻¹

Substance: FbpB-C (from UniProt A0A0U2RP97 264-432) (domain or fragment)
- IC50 of inhibition of classical pathway complement activation (ELISA-based assay, C4b deposition, normal human serum) [2]: 1.9 µM
